Data: patent publication US20030028904A1

Biological target: His-tagged Dock180 (UniProt Q14185)
Assay: cell-based or functional assay

Sequence of ELMO1-GFP (Q8BPU7 whole entry): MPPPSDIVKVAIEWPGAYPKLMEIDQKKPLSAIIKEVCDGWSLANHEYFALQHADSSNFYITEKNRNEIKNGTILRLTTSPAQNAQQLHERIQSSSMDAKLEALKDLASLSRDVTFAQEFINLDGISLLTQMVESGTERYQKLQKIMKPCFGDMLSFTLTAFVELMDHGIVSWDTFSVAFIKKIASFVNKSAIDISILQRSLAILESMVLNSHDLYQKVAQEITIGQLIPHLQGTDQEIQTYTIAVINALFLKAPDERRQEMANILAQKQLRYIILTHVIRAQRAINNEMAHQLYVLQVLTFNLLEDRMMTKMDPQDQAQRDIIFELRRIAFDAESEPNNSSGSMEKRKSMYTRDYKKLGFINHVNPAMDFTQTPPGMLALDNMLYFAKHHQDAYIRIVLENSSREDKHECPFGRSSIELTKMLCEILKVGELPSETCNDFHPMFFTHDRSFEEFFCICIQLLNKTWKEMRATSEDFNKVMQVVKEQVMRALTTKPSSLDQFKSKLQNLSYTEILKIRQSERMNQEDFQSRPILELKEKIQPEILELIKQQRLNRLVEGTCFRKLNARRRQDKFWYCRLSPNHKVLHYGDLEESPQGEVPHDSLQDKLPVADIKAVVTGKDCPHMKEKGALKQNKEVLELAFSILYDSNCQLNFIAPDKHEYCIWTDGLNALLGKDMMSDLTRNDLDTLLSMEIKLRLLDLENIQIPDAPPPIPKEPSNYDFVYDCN

Q: ELMO1-GFP (from UniProt Q8BPU7 1-727) was tested. Which bead uptake in the LR73 phagocytosis assay (GFP positive cells with engulfed particles) did it give?
A: 2 fold
